The target of the series is Eosinophil peroxidase (EPX) (Homo sapiens) (UniProt P11678+P11678). The series is described as follows: cleavage_in_vitro. To be noted: 30 min.
Chain of Eosinophil peroxidase (EPX) (Homo sapiens) (P11678 140-250, chain 1 of 2): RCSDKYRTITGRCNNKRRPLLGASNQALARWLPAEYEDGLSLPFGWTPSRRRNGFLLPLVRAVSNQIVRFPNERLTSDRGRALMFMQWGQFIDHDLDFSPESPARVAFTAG
Chain of Eosinophil peroxidase (EPX) (Homo sapiens) (P11678 251-715, chain 2 of 2): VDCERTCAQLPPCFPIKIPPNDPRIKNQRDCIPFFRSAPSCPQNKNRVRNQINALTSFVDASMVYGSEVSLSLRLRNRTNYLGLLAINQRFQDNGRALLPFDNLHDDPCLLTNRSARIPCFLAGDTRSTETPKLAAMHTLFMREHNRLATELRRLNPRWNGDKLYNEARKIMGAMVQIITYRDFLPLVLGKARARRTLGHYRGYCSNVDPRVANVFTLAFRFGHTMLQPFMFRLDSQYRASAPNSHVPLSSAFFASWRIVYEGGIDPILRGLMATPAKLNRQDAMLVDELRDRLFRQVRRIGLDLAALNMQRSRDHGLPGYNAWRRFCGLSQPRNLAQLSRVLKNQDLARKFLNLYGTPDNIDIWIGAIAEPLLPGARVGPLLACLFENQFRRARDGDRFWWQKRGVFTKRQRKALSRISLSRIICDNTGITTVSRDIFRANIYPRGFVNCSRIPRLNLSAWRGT

“CTATGAACTGACTATGACCTCACTACCAAGATGCCATCCTACCAACGGTCGATGGATGAGTAATACAGGCCGGATGGGTACAGTCG [EPDz20M4 ligated to FS (FS-EPDz20M4)]” had an activity (single riboadenosine cleavage site in FS flanked by dabcyl-dT (5') and fluorescein-dT (3') [13 dabcyl-dT, 14 riboadenosine (R), 15 fluorescein-dT], 50 nM EPX, selection buffer with 15 mM MgCl2, RT) of 18 % cleavage. In addition, the Kd (single riboadenosine cleavage site in FS flanked by dabcyl-dT (5') and fluorescein-dT (3') [13 dabcyl-dT, 14 riboadenosine (R), 15 fluorescein-dT], apparent Kd = EPX concentration giving 50% of maximum cleavage, 50 mM HEPES pH 7.5, 150 mM NaCl, 15 mM MgCl2, 0.01% Tween20, RT) turned out to be 0.03 µM.

Consider “CTATGAACTGACTATGACCTCACTACCAAGATGCCATCCTACCAACGGTCGATGGATGAGTAATACAGGCCGGATGGGTACAGTCGTAATCTATTCGAGCTCTGAACTCG [EPDz20 ligated to FS]”, for which, under “single riboadenosine cleavage site in FS flanked by dabcyl-dT (5') and fluorescein-dT (3'), EPX-activated RNA-cleaving DNAzyme, selection buffer, RT, no cleavage in buffer alone”, the activity came to 15 % cleavage.

These data come from patent publication US20260176675.
